Experimental findings from patent US20180201657A1 are described below.

Data set [1] has as its target FLARE transcription factor component as used in cultured neurons (Neurexin-3b-derived TM, soma targe (Avena sativa)). In words: cell-based or functional assay.
For data set [2], the target named is CD4-TM:CaMbp(M2):LOV:TEVcs(high affinity):Gal4 (original LOV2) (Avena sativa). In words: cell-based or functional assay.
Data set [3] deals with CD4-TM:CaMbp(M2):TEVcs:Gal4 (without LOV domain) (UniProt P04386). Kind of data set: cell-based or functional assay.
In data set [4] the target is CD4-TM:CaMbp(M2):eLOV:TEVcs(high affinity):Gal4 (Avena sativa). Kind of data set: cell-based or functional assay.
Chain of CD4-TM:CaMbp(M2):eLOV:TEVcs(high affinity):Gal4 (Avena sativa) (Q2QYY8 other isoform, or with tags, fused parts or gaps): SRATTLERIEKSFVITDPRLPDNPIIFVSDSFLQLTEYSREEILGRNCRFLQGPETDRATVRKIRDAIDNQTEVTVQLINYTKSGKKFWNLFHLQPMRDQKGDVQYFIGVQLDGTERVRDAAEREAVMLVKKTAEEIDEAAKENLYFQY
The target of data set [5] is Aga2p-HA-eLOV-TEVcs(ENLYFQY)-FLAG displayed on yeast (UniProt P32781).

In data set [1], “FLARE protease component as used in cultured neurons (CaM-TEV) (from UniProt P04517 2038-2256)” gave a S/N with versus without neuronal activity (mCherry, field stimulation with blue light, 8 minutes) of 11; a light/dark S/N (mCherry reporter, cultured neurons, field stimulation, FIG. 10D) of 17; a light/dark S/N (mCherry reporter, cultured neurons, media change, FIG. 10C) of 121; a mCherry signal with stimulation against light exposed/non-stimulated neurons greater than 10 fold.

As for “CaM-TEV(truncated) (from UniProt P04517 2038-2256)”, the high/low Ca^2+ S/N (reporter expression, HEK cells) in data set [2] was 5; in data set [3], 2; in data set [4] it was 16. In addition, the light/dark S/N (reporter expression, HEK cells) in data set [2] was determined as 2; in data set [4], 23.

As for MBP-TEV(S219V) fusion, purified, the “anti-Flag/anti-HA staining of yeast after TEV protease treatment in the dark (FACS)” value in data set [5] is “Evolved LOV displays superior protection of TEVcs against TEV cleavage in the dark state”.
